The supplement of paper PMC5998384

Assays:
[1] = tested on: HeLa Kyoto; experiment: solubility in G1/S (NP-40 vs SDS abundance) (log2 ratio); higher = more soluble; details: cell cycle stage: G1/S
[2] = tested on: HeLa Kyoto; experiment: thermal stability score vs G1/S (z-score of summed log2 fold changes over temperatures); higher = more thermally stable than in G1/S
[3] = tested on: HeLa Kyoto; experiment: solubility change mitosis vs G1/S (difference of NP-40 vs SDS log2 ratios) (log2 ratio difference); higher = more soluble in mitosis
[4] = cell cycle stage: early G1 (4.5 h after nocodazole release)
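Wherever solubility change mitosis vs G1/S (difference of NP-40 vs SDS log2 ratios) is given: synchronized HeLa Kyoto cells (double thymidine block for G1/S, nocodazole release for mitosis), protein amounts in NP-40 versus SDS lysates quantified by mass spectrometry, three biological replicates.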
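Wherever solubility in G1/S (NP-40 vs SDS abundance) is given: HeLa Kyoto cells arrested at G1/S by double thymidine block, proteins quantified by TMT10plex mass spectrometry in mild NP-40 versus SDS extracts, three biological replicates.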
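Wherever thermal stability score vs G1/S (z-score of summed log2 fold changes over temperatures) is given: synchronized HeLa Kyoto cells, proteins quantified by TMT10plex mass spectrometry, three biological replicates, mitosis taken 0.5 h after nocodazole release, G1/S directly after double thymidine block.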

Substance | solubility in G1/S (log2) [1] | thermal stability score [2, 4] | thermal stability score ([2]; cell cycle stage: mitosis) | solubility change mitosis (log2) [3]
MEEGKMDENEWGYHGEGNKSLVVAHAQRCVVLRFLKFPPNRKKTSEEIFQHLQNIVDFGKNVMKEFLGENYVHYGEVVQLPLEFVKQLCLKIQSERPESRCDKDLDTLSGYAMCLPNLTRLQTYRFAEHRPILCVEIKPKCGFIPFSSDVTHEMKHKVCRYCMHQHLKVATGKWKQISKYCPLDLYSGNKQRMHFALKSLLQEAQNNLKIFKNGELIYGCKDARSPVADWSELAHHLKPFFFPSNGLASGPHCTRAVIRELVHVITRVLLSGSDKGRAGTLSPGLGPQGPRVCEASPFSRSLRCQGKNTPERSGLPKGCLLYKTLQVQMLDLLDIEGLYPLYNRVERYLEEFPEERKTLQIDGPYDEAFYQKLLDLSTEDDGTVAFALTKVQQYRVAMTAKDCSIMIALSPCLQDASSDQRPVVPSSRSRFAFSVSVLDLDLKPYESIPHQYKLDGKIVNYYSKTVRAKDNAVMSTRFKESEDCTLVLHKV [IPPK] | -0.275 | 0.519 | 1.21 | -0.0236
MTVEQNVLQQSAAQKHQQTFLNQLREITGINDTQILQQALKDSNGNLELAVAFLTAKNAKTPQQEETTYYQTALPGNDRYISVGSQADTNVIDLTGDDKDDLQRAIALSLAESNRAFRETGITDEEQAISRVLEASIAENKACLKRTPTEVWRDSRNPYDRKRQDKAPVGLKNVGNTCWFSAVIQSLFNLLEFRRLVLNYKPPSNAQDLPRNQKEHRNLPFMRELRYLFALLVGTKRKYVDPSRAVEILKDAFKSNDSQQQDVSEFTHKLLDWLEDAFQMKAEEETDEEKPKNPMVELFYGRFLAVGVLEGKKFENTEMFGQYPLQVNGFKDLHECLEAAMIEGEIESLHSENSGKSGQEHWFTELPPVLTFELSRFEFNQALGRPEKIHNKLEFPQVLYLDRYMHRNREITRIKREEIKRLKDYLTVLQQRLERYLSYGSGPKRFPLVDVLQYALEFASSKPVCTSPVDDIDASSPPSGSIPSQTLPSTTEQQGALSSELPSTSPSSVAAISSRSVIHKPFTQSRIPPDLPMHPAPRHITEEELSVLESCLHRWRTEIENDTRDLQESISRIHRTIELMYSDKSMIQVPYRLHAVLVHEGQANAGHYWAYIFDHRESRWMKYNDIAVTKSSWEELVRDSFGGYRNASAYCLMYINDKAQFLIQEEFNKETGQPLVGIETLPPDLRDFVEEDNQRFEKELEEWDAQLAQKALQEKLLASQKLRESETSVTTAQAAGDPEYLEQPSRSDFSKHLKEETIQIITKASHEHEDKSPETVLQSAIKLEYARLVKLAQEDTPPETDYRLHHVVVYFIQNQAPKKIIEKTLLEQFGDRNLSFDERCHNIMKVAQAKLEMIKPEEVNLEEYEEWHQDYRKFRETTMYLIIGLENFQRESYIDSLLFLICAYQNNKELLSKGLYRGHDEELISHYRRECLLKLNEQAAELFESGEDREVNNGLIIMNEFIVPFLPLLLVDEMEEKDILAVEDMRNRWCSYLGQEMEPHLQEKLTDFLPKLLDCSMEIKSFHEPPKLPSYSTHELCERFARIMLSLSRTPADGR [USP25] | 0.123 | -0.404 | 0.0462 | -0.00837
MAPARLFALLLFFVGGVAESIRETEVIDPQDLLEGRYFSGALPDDEDVVGPGQESDDFELSGSGDLDDLEDSMIGPEVVHPLVPLDNHIPERAGSGSQVPTEPKKLEENEVIPKRISPVEESEDVSNKVSMSSTVQGSNIFERTEVLAALIVGGIVGILFAVFLILLLMYRMKKKDEGSYDLGKKPIYKKAPTNEFYA [SDC4] | -0.523 | 2.66 | 4.92 | 0.235
MPDZ | -0.0106 | 0.637 | 0.641 | 0.0126
MKRRNADCSKLRRPLKRNRITEGIYGSTFLYLKFLVVWALVLLADFVLEFRFEYLWPFWLFIRSVYDSFRYQGLAFSVFFVCVAFTSNIICLLFIPIQWLFFAASTYVWVQYVWHTERGVCLPTVSLWILFVYIEAAIRFKDLKNFHVDLCRPFAAHCIGYPVVTLGFGFKSYVSYKMRLRKQKEVQKENEFYMQLLQQALPPEQQMLQKQEKEAEEAAKGLPDMDSSILIHHNGGIPANKKLSTTLPEIEYREKGKEKDKDAKKHNLGINNNNILQPVDSKIQEIEYMENHINSKRLNNDLVGSTENLLKEDSCTASSKNYKNASGVVNSSPRSHSATNGSIPSSSSKNEKKQKCTSKSPSTHKDLMENCIPNNQLSKPDALVRLEQDIKKLKADLQASRQVEQELRSQISSLSSTERGIRSEMGQLRQENELLQNKLHNAVQMKQKDKQNISQLEKKLKAEQEARSFVEKQLMEEKKRKKLEEATAARAVAFAAASRGECTETLRNRIRELEAEGKKLTMDMKVKEDQIRELELKVQELRKYKENEKDTEVLMSALSAMQDKTQHLENSLSAETRIKLDLFSALGDAKRQLEIAQGQILQKDQEIKDLKQKIAEVMAVMPSITYSAATSPLSPVSPHYSSKFVETSPSGLDPNASVYQPLKK [TMEM57] | -0.363 | -1.41 | -2.47 | 0.256
MDLDVVNMFVIAGGTLAIPILAFVASFLLWPSALIRIYYWYWRRTLGMQVRYVHHEDYQFCYSFRGRPGHKPSILMLHGFSAHKDMWLSVVKFLPKNLHLVCVDMPGHEGTTRSSLDDLSIDGQVKRIHQFVECLKLNKKPFHLVGTSMGGQVAGVYAAYYPSDVSSLCLVCPAGLQYSTDNQFVQRLKELQGSAAVEKIPLIPSTPEEMSEMLQLCSYVRFKVPQQILQGLVDVRIPHNNFYRKLFLEIVSEKSRYSLHQNMDKIKVPTQIIWGKQDQVLDVSGADMLAKSIANCQVELLENCGHSVVMERPRKTAKLIIDFLASVHNTDNNKKLD [ABHD6] | -0.209 | 0.51 | -0.118 | -0.0832
MTNPWEEKVCKMAQTSLLQGKQFYCREWVFHKLQHCLQEKSNCCNSAVNAPSLVMNSGNNASGVSGKGAAWGVLLVGGPGSGKTALCTELLWPSSPASLQRGLHRQALAFHFCKAQDSDTLCVGGFIRGLVAQICRSGLLQGYEDKLRDPAVQSLLQPGECERNPAEAFKRCVLLPLLGMKPPQQSLYLLVDSVDEGCNITEGEQTSTSLSGTVAALLAGHHEFFPPWLLLLCSARKQSKAVTKMFTGFRKISLDDLRKAYIVKDVQQYILHRLDQEEALRQHLTKETAEMLNQLHIKSSGCFLYLERVLDGVVENFIMLREIRDIPGTLNGLYLWLCQRLFVRKQFAKVQPILNVILAACRPLTITELYHAVWTKNMSLTLEDFQRKLDILSKLLVDGLGNTKILFHYSFAEWLLDVKHCTQKYLCNAAEGHRMLAMSYTCQAKNLTPLEAQEFALHLINSNLQLETAELALWMIWNGTPVRDSLSTLIPKEQEVLQLLVKAGAHVNSEDDRTSCIVRQALEREDSIRTLLDNGASVNQCDSNGRTLLANAAYSGSLDVVNLLVSRGADLEIEDAHGHTPLTLAARQGHTKVVNCLIGCGANINHTDQDGWTALRSAAWGGHTEVVSALLYAGVKVDCADADSRTALRAAAWGGHEDIVLNLLQHGAEVNKADNEGRTALIAAAYMGHREIVEHLLDHGAEVNHEDVDGRTALSVAALCVPASKGHASVVSLLIDRGAEVDHCDKDGMTPLLVAAYEGHVDVVDLLLEGGADVDHTDNNGRTPLLAAASMGHASVVNTLLFWGAAVDSIDSEGRTVLSIASAQGNVEVVRTLLDRGLDENHRDDAGWTPLHMAAFEGHRLICEALIEQGARTNEIDNDGRIPFILASQEGHYDCVQILLENKSNIDQRGYDGRNALRVAALEGHRDIVELLFSHGADVNCKDADGRPTLYILALENQLTMAEYFLENGANVEASDAEGRTALHVSCWQGHMEMVQVLIAYHADVNAADNEKRSALQSAAWQGHVKVVQLLIEHGAVVDHTCNQGATALCIAAQEGHIDVVQVLLEHGADPNHADQFGRTAMRVAAKNGHSQIIKLLEKYGASSLNGCSPSPVHTMEQKPLQSLSSKVQSLTIKSNSSGSTGGGDMQPSLRGLPNGPTHAFSSPSESPDSTVDRQKSSLSNNSLKSSKNSSLRTTSSTATAQTVPIDSFHNLSFTEQIQQHSLPRSRSRQSIVSPSSTTQSLGQSHNSPSSEFEWSQVKPSLKSTKASKGGKSENSAKSGSAGKKAKQSNSSQPKVLEYEMTQFDRRGPIAKSGTAAPPKQMPAESQCKIMIPSAQQEIGRSQQQFLIHQQSGEQKKRNGIMTNPNYHLQSNQVFLGRVSVPRTMQDRGHQEVLEGYPSSETELSLKQALKLQIEGSDPSFNYKKETPL [ANKRD50] | 0.02 | -0.667 | -0.543 | -0.256
MESSSSDYYNKDNEEESLLANVASLRHELKITEWSLQSLGEELSSVSPSENSDYAPNPSRSEKLILDVQPSHPGLLNYSPYENVCKISGSSTDFQKKPRDKMFSSSAPVDQEIKSLREKLNKLRQQNACLVTQNHSLMTKFESIHFELTQSRAKVSMLESAQQQAASVPILEEQIINLEAEVSAQDKVLREAENKLEQSQKMVIEKEQSLQESKEECIKLKVDLLEQTKQGKRAERQRNEALYNAEELSKAFQQYKKKVAEKLEKVQAEEEILERNLTNCEKENKRLQERCGLYKSELEILKEKLRQLKEENNNGKEKLRIMAVKNSEVMAQLTESRQSILKLESELENKDEILRDKFSLMNENRELKVRVAAQNERLDLCQQEIESSRVELRSLEKIISQLPLKRELFGFKSYLSKYQMSSFSNKEDRCIGCCEANKLVISELRIKLAIKEAEIQKLHANLTANQLSQSLITCNDSQESSKLSSLETEPVKLGGHQVESVKDQNQHTMNKQYEKERQRLVTGIEELRTKLIQIEAENSDLKVNMAHRTSQFQLIQEELLEKASNSSKLESEMTKKCSQLLTLEKQLEEKIVAYSSIAAKNAELEQELMEKNEKIRSLETNINTEHEKICLAFEKAKKIHLEQHKEMEKQIERLEAQLEKKDQQFKEQEKTMSMLQQDIICKQHHLESLDRLLTESKGEMKKENMKKDEALKALQNQVSEETIKVRQLDSALEICKEELVLHLNQLEGNKEKFEKQLKKKSEEVYCLQKELKIKNHSLQETSEQNVILQHTLQQQQQMLQQETIRNGELEDTQTKLEKQVSKLEQELQKQRESSAEKLRKMEEKCESAAHEADLKRQKVIELTGTARQVKIEMDQYKEELSKMEKEIMHLKRDGENKAMHLSQLDMILDQTKTELEKKTNAVKELEKLQHSTETELTEALQKREVLETELQNAHGELKSTLRQLQELRDVLQKAQLSLEEKYTTIKDLTAELRECKMEIEDKKQELLEMDQALKERNWELKQRAAQVTHLDMTIREHRGEMEQKIIKLEGTLEKSELELKECNKQIESLNDKLQNAKEQLREKEFIMLQNEQEISQLKKEIERTQQRMKEMESVMKEQEQYIATQYKEAIDLGQELRLTREQVQNSHTELAEARHQQVQAQREIERLSSELEDMKQLSKEKDAHGNHLAEELGASKVREAHLEARMQAEIKKLSAEVESLKEAYHMEMISHQENHAKWKISADSQKSSVQQLNEQLEKAKLELEEAQDTVSNLHQQVQDRNEVIEAANEALLTKESELTRLQAKISGHEKAEDIKFLPAPFTSPTEIMPDVQDPKFAKCFHTSFSKCTKLRRSISASDLTFKIHGDEDLSEELLQDLKKMQLEQPSTLEESHKNLTYTQPDSFKPLTYNLEADSSENNDFNTLSGMLRYINKEVRLLKKSSMQTGAGLNQGENV [CCDC18] | 0.155 | -0.388 | -0.856 | 0.237
